# Results: patent US20100009907A1, “Glucagon-Like Peptides and Uses Thereof” (AMYLIN PHARMACEUTICALS, INC., priority 2006, published 2010)
# Where no end group is shown, it is not given here.
# T1: GLP-1 receptor (RINm5F cell membranes) (Rattus norvegicus, UniProt P32301)
# T1 construct: RINm5F insulinoma cells expressing endogenous GLP-1 receptors; endogenous in cells; host or cells: RINm5F cell membranes
# T1 sequence (P32301 22-463): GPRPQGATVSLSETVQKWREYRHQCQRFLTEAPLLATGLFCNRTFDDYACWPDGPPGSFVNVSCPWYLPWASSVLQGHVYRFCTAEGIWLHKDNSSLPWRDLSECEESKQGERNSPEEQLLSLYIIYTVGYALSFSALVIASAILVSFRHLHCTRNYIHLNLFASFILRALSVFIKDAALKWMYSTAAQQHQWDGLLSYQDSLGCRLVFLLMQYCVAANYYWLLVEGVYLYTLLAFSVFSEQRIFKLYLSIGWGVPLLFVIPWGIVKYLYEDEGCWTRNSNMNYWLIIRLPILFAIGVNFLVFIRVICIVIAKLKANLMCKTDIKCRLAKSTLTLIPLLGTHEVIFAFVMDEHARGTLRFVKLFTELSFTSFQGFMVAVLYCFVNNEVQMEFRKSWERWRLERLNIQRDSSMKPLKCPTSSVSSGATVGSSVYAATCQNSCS
# T2: RINm5f cells expressing endogenous GLP-1, calcitonin, and GIP receptors (Rattus norvegicus, UniProt P32301)
# T2 construct: RINm5f cells expressing endogenous GLP-1, calcitonin, and GIP receptors; endogenous in cells; host or cells: RINm5f cells
# T2 sequence (P32301 22-463): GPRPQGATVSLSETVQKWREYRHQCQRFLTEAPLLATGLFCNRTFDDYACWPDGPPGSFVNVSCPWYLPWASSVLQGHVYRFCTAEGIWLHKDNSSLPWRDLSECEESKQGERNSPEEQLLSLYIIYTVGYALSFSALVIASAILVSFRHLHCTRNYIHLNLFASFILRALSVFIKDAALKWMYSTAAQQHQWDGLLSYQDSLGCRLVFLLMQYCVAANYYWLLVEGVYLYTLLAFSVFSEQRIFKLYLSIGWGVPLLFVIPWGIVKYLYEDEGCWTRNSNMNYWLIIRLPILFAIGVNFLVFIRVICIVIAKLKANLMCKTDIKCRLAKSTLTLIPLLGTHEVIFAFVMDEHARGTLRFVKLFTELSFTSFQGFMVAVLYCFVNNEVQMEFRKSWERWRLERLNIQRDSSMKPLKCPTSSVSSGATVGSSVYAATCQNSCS
# T3: GLP-1 receptor (endogenous, RINm5F cell membranes; rat thyroid carcinoma 6-23 clone 6 cells) (rat, UniProt P32301 22-463)
# T3 sequence (looked up): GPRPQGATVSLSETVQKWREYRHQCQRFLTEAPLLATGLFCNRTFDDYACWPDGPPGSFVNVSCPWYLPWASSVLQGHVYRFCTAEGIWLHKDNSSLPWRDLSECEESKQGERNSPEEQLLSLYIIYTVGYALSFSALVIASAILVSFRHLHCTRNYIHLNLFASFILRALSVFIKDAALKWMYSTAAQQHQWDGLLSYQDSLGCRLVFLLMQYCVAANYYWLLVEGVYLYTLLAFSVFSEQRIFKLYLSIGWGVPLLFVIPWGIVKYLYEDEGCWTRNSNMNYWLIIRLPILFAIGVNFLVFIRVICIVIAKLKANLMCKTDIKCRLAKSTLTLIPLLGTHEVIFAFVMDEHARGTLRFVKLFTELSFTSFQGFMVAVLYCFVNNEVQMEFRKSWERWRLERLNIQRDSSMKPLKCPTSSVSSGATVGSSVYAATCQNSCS
# Legend:
# [1] = target: T1, GLP-1 receptor (RINm5F cell membranes); assay: GLP-1 receptor binding assay (GLP RBA), [125I]GLP-1 displacement; conditions: [125I]GLP-1 tracer
# Procedure: Reaction mixtures are filtered through glass filter pads presoaked with 0.3% PEI solution and rinsed with ice-cold phosphate buffered saline. Bound counts are determined using a scintillation counter. Binding affinities are calculated using GraphPad Prism software (GraphPad Software, Inc., San Diego, Calif.).
# [2] = target: T2, RINm5f cells expressing endogenous GLP-1, calcitonin, and GIP receptors; assay: GLP/GIP/CT cAMP (RIN) assay; assay type: cell-based
# Procedure: In addition, receptor binding can be measured using cells prepared from confluent cultures of RINm5f cells expressing endogenous GLP-1, calcitonin, and GIP receptors. Cells, and peptide or buffer solution are combined in 384-well plates. After a 30-minute incubation at room temperature in air, cAMP content is measured as recommended in the Perkin-Elmer AlphaScreen kit instructions.
# Cells, and peptide or buffer solutions are combined in 384-well plates and incubated at room temperature in air for 30-minutes. cAMP content can then be measured according to recommendations in the Perkin-Elmer AlphaScreen™ kit instructions using the Perkin Elmer Fusion fluorimeter and data are analyzed using XLfit software (IDBS).
# [3] = target: T3, GLP-1 receptor (endogenous, RINm5F cell …); assay: cell-based or functional assay
# [4] = target: endogenous GLP-1, calcitonin, and GIP receptors of RINm5f cells; assay: cell-based or functional assay
# [5] = target: T3, GLP-1 receptor (endogenous, RINm5F cell …); assay: displacement of [125I]GLP-1 from RINm5F cell membranes (GLP RBA)
# Procedure: GLP-1 receptor binding activity and affinity can be measured using a binding displacement assay in which the receptor source is RINm5F cell membranes, and the ligand is [¹²⁵I]GLP-1. Homogenized RINm5F cell membranes are incubated in 20 mM HEPES buffer with 40,000 cpm [¹²⁵I]GLP-1 tracer, and varying concentrations of test compound for 60 minutes at 23° C. with constant mixing. Reaction mixtures are filtered through glass filter pads presoaked with 0.3% PEI solution and rinsed with ice-cold phosphate buffered saline. Bound counts are determined using a scintillation counter. Binding affinities are calculated using GraphPad Prism software (GraphPad Software, Inc., San Diego, Calif.).
Molecule,GLP-1 cAMP (6-23) EC50 [3] [nM],GLP/GIP/CT cAMP(RIN) EC50 [4] [nM],IC50 [5] [nM],also measured
HAEGTYTNDVTEYLEEKAAKFIEWLIKGKPKKIRYS-NH2 (C-terminus assumed) [compound 31],,,,IC50 [1]: 19 nM
CC[C@H](C)[C@H](NC(=O)[C@H](CC(C)C)NC(=O)[C@H](Cc1c[nH]c2ccccc12)NC(=O)[C@H](CC(=O)O)NC(=O)[C@@H](NC(=O)[C@H](Cc1ccccc1)NC(=O)[C@H](CCC(=O)O)NC(=O)[C@H](CCCCN)NC(=O)[C@H](C)NC(=O)[C@H](C)NC(=O)[C@H](CCCCN)NC(=O)[C@H](CCC(=O)O)NC(=O)[C@H](CC(=O)O)NC(=O)[C@H](CC(C)C)NC(=O)[C@H](CCC(N)=O)NC(=O)[C@H](CCC(N)=O)NC(=O)[C@@H](NC(=O)[C@@H](NC(=O)[C@H](CC(=O)O)NC(=O)[C@H](CO)NC(=O)[C@@H](NC(=O)[C@H](Cc1ccccc1)NC(=O)[C@@H](NC(=O)CNC(=O)[C@H](CCC(=O)O)NC(=O)[C@H](C)NC(=O)[C@@H](N)Cc1c[nH]cn1)[C@@H](C)O)[C@@H](C)O)C(C)C)[C@@H](C)O)[C@@H](C)CC)C(=O)N[C@@H](CC(N)=O)C(=O)NCC(=O)NCC(=O)N1CCC[C@H]1C(=O)N[C@@H](CO)C(=O)N[C@@H](CCCCN)C(=O)N[C@@H](CCC(=O)O)C(=O)N[C@H](C(=O)N[C@H](C(=O)N[C@@H](CO)C(N)=O)[C@@H](C)CC)[C@@H](C)CC [compound 11],,,,GLP/GIP/CT cAMP(RIN) EC50 [2]: 0.59 nM
HAEGTYTNDVTEYLEEKAAKEFIEWLIN-NH2 (C-terminus assumed) [compound 24],,,,GLP/GIP/CT cAMP(RIN) EC50 [2]: 0.85 nM
HAEGTFTSDVTQQLDEKAAKEFIDWLINGGASKEIIS-NH2 (C-terminus assumed) [compound 12],,,,GLP/GIP/CT cAMP(RIN) EC50 [2]: 0.29 nM
HAEGTYTNDVTEYLEEKAAKEFIEWLIPKKIRYS-NH2 (C-terminus assumed) [compound 32],,,,IC50 [1]: 22 nM
HAEGTYTNDVTEYLEEKAAKEFIEWLINGGPSKEIIS-NH2 (C-terminus assumed) [compound 21],,,,GLP/GIP/CT cAMP(RIN) EC50 [2]: 1 nM
HADGTYTSDVSSYLQDQAAKDFITWLKSGQPKPDAVETRSVDTL-NH2 [compound 49],,,,GLP/GIP/CT cAMP(RIN) EC50 [2]: 415 nM
HAEGTYTNDVTEYLEEKAAKEFIEWLIK-NH2 (C-terminus assumed) [compound 25],,,,GLP/GIP/CT cAMP(RIN) EC50 [2]: 0.53 nM
HGEGTYTNDVTQFLEEKAAKEFIDWLIKGKPKKQRLS-NH2 (C-terminus assumed) [compound 55],,,,GLP/GIP/CT cAMP(RIN) EC50 [2]: 0.576 nM
HAEGTFTSDVTQQLDEKAAKEFIDWLINGGPSSGAPPPS-NH2 (C-terminus assumed) [compound 9],,,,GLP/GIP/CT cAMP(RIN) EC50 [2]: 0.28 nM
HADGTFTNDMTSYLDAKAARDFVSWLARSDKS-NH2 [compound 52],,,,GLP/GIP/CT cAMP(RIN) EC50 [2]: 382 nM
YADAPYISDVYSYLQDQVAKKWLKSGQD-NH2 [compound 51],,,,GLP/GIP/CT cAMP(RIN) EC50 [2]: 971 nM
HAEGTFTSDVTQQLEEKAAKEFIEWLIKGKPKKIRYS-NH2 (C-terminus assumed) [compound 22],,,,GLP/GIP/CT cAMP(RIN) EC50 [2]: 0.1 nM
HAEGTFTSDVTQQLDEKAAKEFIDWLINGGPSKEIIS-OH (also called nmGLP-1 peptide; naturally occurring nmGLP-1) [SEQ ID NO 1],7.7,1.9,,
HAEGTFTSDVTQQLDEKAAKEFIDWLINGGASKEIIS (also called nmGLP-1 analog) [SEQ ID NO 12],,0.29,8.8,
HAEGTYTNDVTEYEEKAAKEFIEWLIKGKPKKIRYS (also called nmGLP-1 analog) [SEQ ID NO 38],104,,42,

Molecule,GLP-1 cAMP (6-23) EC50 [3] [nM],GLP/GIP/CT cAMP(RIN) EC50 [4] [nM],IC50 [5] [nM],also measured
HAEGTYTNDVTEYLEEAAKEFIEWLIKGKPKKIRYS (also called nmGLP-1 analog) [SEQ ID NO 30],> 1000,,537,
HAEGTYTNDVTEYLEKAAKEFIEWLIKGKPKKIRYS (also called nmGLP-1 analog) [SEQ ID NO 29],930,,91,
HAEGTYTNDTEYLEEKAAKEFIEWLIKGKPKKIRYS (also called nmGLP-1 analog) [SEQ ID NO 39],> 1000,,61,
HAEGTYTNDVTELEEKAAKEFIEWLIKGKPKKIRYS (also called nmGLP-1 analog) [SEQ ID NO 33],145,,81,
"HXEGTYTNDVTEYLEEKAAKEFIEWLIKGKPKKIRYS (Aib (2-Aminoisobutyric acid) at position 2, also called nmGLP-1 analog) [SEQ ID NO 27]",,,0.1,
"HXEGTYTNDVTEYLEEKAAKEFIEWLIKGKPKKIRYS (Abu (2-Aminobutyric acid) at position 2, also called nmGLP-1 analog) [SEQ ID NO 28]",,,0.067,
HAEGTYTNDVTEYLEEKAAKEFIEWLIKGKPKKIRY (also called nmGLP-1 analog) [SEQ ID NO 34],0.095,,15,
HAEGTFTSDVTQQLDEKAAKEFIDWLINGGPSKEIIS (also called nmGLP-1 analog) [SEQ ID NO 11],,0.59,2.3,
"HXEGTFTSDVTQQLDEKAAKEFIDWLINGGPSKEIIS (dAla at position 2 (a = dAla), also called nmGLP-1 analog) [SEQ ID NO 10]",,,1.9,
HAEGTYTNDVTEYLEEKAAKEFIEWLINGGPSKEIIS (also called nmGLP-1 analog) [SEQ ID NO 21],,1,2.1,
HAEGTYTNDVTEYLEEKAAKEFIEWLIN (also called nmGLP-1 analog) [SEQ ID NO 24],,0.85,1.3,
HAEGTYTNDVTEYLEEKAAKEFIEWLIK (also called nmGLP-1 analog) [SEQ ID NO 25],,0.53,0.54,
HAEGTFTSDVTQQLEEKAAKEFIEWLIKGKPKKIRYS (also called nmGLP-1 analog) [SEQ ID NO 22],,0.1,0.067,
HAEGTYTNDVTEYLEEKAAKEFIEWLIKGKPKKIRYS (also called nmGLP-1 peptide; naturally occurring nmGLP-1) [SEQ ID NO 2],0.82,0.36,,
HGEGTYTNDVTEYLEEKAAKEFIEWLIKGKPKKIRYS (also called nmGLP-1 analog) [SEQ ID NO 26],0.16,0.967,,
HAEGTFTSDVTQQLDEKAAKEFIDWLINPGSEGIKSI (also called nmGLP-1 analog) [SEQ ID NO 14],2.2,18,,

# Now from value to molecule, other results behind:
GLP-1 cAMP (6-23) EC50 [3] [nM],GLP/GIP/CT cAMP(RIN) EC50 [4] [nM],IC50 [5] [nM],Molecule,also measured
220,,9,HAEGTYTNDVTYLEEKAAKEFIEWLIKGKPKKIRYS (also called nmGLP-1 analog) [SEQ ID NO 41],
,415,74,HADGTYTSDVSSYLQDQAAKDFITWLKSGQPKPDAVETRSVDTL (also called nmGLP-1 peptide; naturally occurring nmGLP-1) [SEQ ID NO 49],
,382,0.9,HADGTFTNDMTSYLDAKAARDFVSWLARSDKS (also called nmGLP-1 peptide; naturally occurring nmGLP-1) [SEQ ID NO 52],
2.34,14,,HADGTYTSDVSSYLQDQAAKDFITWLKSGQPKPDAVET (also called nmGLP-1 peptide; naturally occurring nmGLP-1) [SEQ ID NO 48],
,971,111,YADAPYISDVYSYLQDQVAKKWLKSGQD (also called nmGLP-1 peptide; naturally occurring nmGLP-1) [SEQ ID NO 51],
,0.576,0.05,HGEGTYTNDVTQFLEEKAAKEFIDWLIKGKPKKQRLS (also called nmGLP-1 analog) [SEQ ID NO 55],
